Experiments:
Type in all cases: in vivo
[1] = system: Arabidopsis thaliana T1 plants; assay: Topramezone tolerance of transgenic Arabidopsis thaliana T1 plants (spray, bleached leaf area grade, damage score); conditions: 7 DAT, Table 4; for Classification and statistics of the grade of pesticide damage: Grade 0 / Classification and statistics of the grade of pesticide damage: Grade 1 / Classification and statistics of the grade of pesticide damage: Grade 2 / Classification and statistics of the grade of pesticide damage: Grade 3: number of plants; for Scores: pesticide damage score 0-100
In short: (§1)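 T1 transformants selected by glufosinate; 18-day-old plants, with empty-vector and wild-type controls, sprayed with topramezone (25–200 g ai/ha), isoxaflutole (35–280 g ai/ha) or mesotrione (52.5–420 g ai/ha), water as 0×. Bleached leaf area fraction scored at 7 DAT as grades 0–3.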

[2] = system: Arabidopsis thaliana T1 plants; assay: Isoxaflutole tolerance of transgenic Arabidopsis thaliana T1 plants (spray, bleached leaf area grade, damage score); parameters: Scores (pesticide damage): scale not given here; conditions: spray, Arabidopsis thaliana T1 plants; for Classification and statistics of the grade of pesticide damage: Grade 0 (number of plants) / Classification and statistics of the grade of pesticide damage: Grade 1 (number of plants) / Classification and statistics of the grade of pesticide damage: Grade 2 (number of plants) / Classification and statistics of the grade of pesticide damage: Grade 3 (number of plants): 16 plants
In short: as §1

[3] = system: Arabidopsis thaliana T1 plants; assay: Mesotrione tolerance of transgenic Arabidopsis thaliana T1 plants (spray, bleached leaf area grade, damage score); parameters: Scores: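 damage score 0-100 computed as Σ(N×S)/(T×M)×100 over grades 0-3 with higher meaning more damage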; conditions: Arabidopsis thaliana T1 plants; for Grade 0 (classification and statistics of the grade of pesticide damage; number of plants) / Grade 1 (classification and statistics of the grade of pesticide damage; number of plants) / Grade 2 (classification and statistics of the grade of pesticide damage; number of plants) / Grade 3 (classification and statistics of the grade of pesticide damage; number of plants): 16 plants
In short: as §1

[4] = isoxaflutole 35 g ai/ha (0.5x field concentration)
[5] = isoxaflutole 70 g ai/ha (1x field concentration)

B1: GmHPPDm-F372A-02: nucleotide sequence encoding Glycine max HPPD with F372A; vector DBN11747 (nucleic acid)
DNA: ATGCCAATGTACACACCATCGCTCTCCGCCCCTTCTTCCAACCATATTCAGCCATCCGTGACTCTGCCTCTCTACATCACAACCACCAAGTTGAACCTGAAGCAGCAGCACCATACGACTCCTATGCCTATACCCATGTGCAATGAGATCCAAGCACAGGCTCAGGCACAAGCTCAACCCGGATTCAAACTCGTGGGATTCAAGAACTTCGTCCGTACCAATCCAAAATCTGACCGCTTCCAGGTGAACAGATTCCACCACATAGAGTTTTGGTGTACTGATGCAACGAATGCTTCGAGGAGGTTTTCATGGGGCTTAGGCATGCCGATTGTAGCAAAGTCAGACCTTTCTACAGGGAACCAAATTCATGCAAGCTATCTGCTCCGCTCAGGTGATTTGTCTTTCTTGTTCTCAGCTCCATATTCTCCATCATTATCTGCTGGGTCATCAGCAGCATCTAGTGCGTCGATCCCTAGCTTTGATGCCGCCACCTGCCTCGCCTTCGCCGCCAAACATGGATTTGGTGTTCGCGCCATTGCTCTTGAGGTTGCCGATGCCGAGGCTGCTTTTAGCGCCTCCGTCGCCAAGGGAGCTGAGCCTGCGTCACCTCCTGTTCTTGTTGATGATCGAACTGGTTTTGCTGAAGTGCGTCTTTACGGCGACGTGGTGCTCAGATATGTTAGTTACAAGGATGCTGCTCCTCAAGCGCCGCACGCTGATCCTTCAAGATGGTTTCTTCCGGGGTTTGAGGCCGCTGCTAGTTCATCTTCCTTCCCGGAGTTGGATTACGGCATACGGCGGCTTGACCATGCTGTCGGCAATGTTCCTGAGCTTGCTCCGGCGGTACGGTACTTGAAAGGTTTCTCCGGGTTCCATGAATTTGCAGAGTTCACGGCGGAAGATGTTGGAACAAGTGAAAGCGGATTGAATTCTGTTGTTTTGGCCAACAACAGTGAAACTGTTCTGCTCCCCCTCAATGAACCAGTTTATGGCACAAAGCGCAAGAGCCAGATTGAAACATATCTCGAGCACAATGAAGGCGCCGGCGTCCAGCATCTTGCTTTGGTGACTCATGATATCTTCACAACACTTAGGGAGATGAGGAAGAGGAGTTTCCTCGGCGGGTTTGAATTCATGCCCAGTCCCCCGCCGACCTACTATGCAAATCTGCACAACAGGGCTGCAGATGTGCTGACTGTAGACCAGATCAAGCAATGTGAAGAACTTGGAATTTTAGTGGATAGAGACGACCAAGGTACACTACTTCAAATAGCCACCAAACCAGTCGGTGACAGACCAACAATTTTCATCGAGATTATACAAAGAATTGGATGCATGGTCGAGGATGAAGAAGGGAAGGTGTACCAGAAGGGAGCATGTGGTGGTTTTGGGAAAGGAAATTTTTCTGAGCTGTTTAAATCCATCGAGGAATATGAGAAAACCTTAGAAGCTAAAAGAACTGCATGA
modifications: GmHPPDm-F372A-02 Nucleotide Sequence
notes: vector DBN11747
- Classification and statistics of the grade of pesticide damage: Grade 0 ([1]; topramezone 25 g ai/ha (1×)): 0
- Classification and statistics of the grade of pesticide damage: Grade 1 ([1]; topramezone 25 g ai/ha (1×)): 12
- Classification and statistics of the grade of pesticide damage: Grade 2 ([1]; topramezone 25 g ai/ha (1×)): 4
- Classification and statistics of the grade of pesticide damage: Grade 3 ([1]; topramezone 25 g ai/ha (1×)): 0
- Classification and statistics of the grade of pesticide damage: Grade 0 ([1]; topramezone 100 g ai/ha (4×)): 0
- Classification and statistics of the grade of pesticide damage: Grade 1 ([1]; topramezone 100 g ai/ha (4×)): 0
- Classification and statistics of the grade of pesticide damage: Grade 2 ([1]; topramezone 100 g ai/ha (4×)): 0
- Classification and statistics of the grade of pesticide damage: Grade 3 ([1]; topramezone 100 g ai/ha (4×)): 16
- Scores ([1]; topramezone 25 g ai/ha (1×)): 42
- Scores ([1]; topramezone 100 g ai/ha (4×)): 100
- Resistance evaluation ([1]; topramezone 25 g ai/ha (1×)): poorly
- Resistance evaluation ([1]; topramezone 100 g ai/ha (4×)): non-resistant (non-resistant plants (scores 68-100))
- Resistance evaluation [2, 4]: Poorly
- Scores (pesticide damage) [2, 4]: 65
- Classification and statistics of the grade of pesticide damage: Grade 0 (number of plants) [2, 4]: 0
- Classification and statistics of the grade of pesticide damage: Grade 1 (number of plants) [2, 4]: 3
- Classification and statistics of the grade of pesticide damage: Grade 2 (number of plants) [2, 4]: 11
- Classification and statistics of the grade of pesticide damage: Grade 3 (number of plants) [2, 4]: 2
- Resistance evaluation [2, 5]: Non-resistant
- Scores (pesticide damage) [2, 5]: 100
- Classification and statistics of the grade of pesticide damage: Grade 0 (number of plants) [2, 5]: 0
- Classification and statistics of the grade of pesticide damage: Grade 1 (number of plants) [2, 5]: 0
- Classification and statistics of the grade of pesticide damage: Grade 2 (number of plants) [2, 5]: 0
- Classification and statistics of the grade of pesticide damage: Grade 3 (number of plants) [2, 5]: 16
- Resistance evaluation ([3]; mesotrione 52.5 g ai/ha): Poorly resistant
- Scores ([3]; mesotrione 52.5 g ai/ha): 67
- Grade 0 (classification and statistics of the grade of pesticide damage; number of plants) ([3]; mesotrione 52.5 g ai/ha): 0
- Grade 1 (classification and statistics of the grade of pesticide damage; number of plants) ([3]; mesotrione 52.5 g ai/ha): 2
- Grade 2 (classification and statistics of the grade of pesticide damage; number of plants) ([3]; mesotrione 52.5 g ai/ha): 12
- Grade 3 (classification and statistics of the grade of pesticide damage; number of plants) ([3]; mesotrione 52.5 g ai/ha): 2
- Resistance evaluation ([3]; mesotrione 105 g ai/ha): Non-resistant
- Scores ([3]; mesotrione 105 g ai/ha): 100
- Grade 0 (classification and statistics of the grade of pesticide damage; number of plants) ([3]; mesotrione 105 g ai/ha): 0
- Grade 1 (classification and statistics of the grade of pesticide damage; number of plants) ([3]; mesotrione 105 g ai/ha): 0
- Grade 2 (classification and statistics of the grade of pesticide damage; number of plants) ([3]; mesotrione 105 g ai/ha): 0
- Grade 3 (classification and statistics of the grade of pesticide damage; number of plants) ([3]; mesotrione 105 g ai/ha): 16
